For data set [1], the system named is activated CD8+ T cells. The data set can be described thus: C3aR and C5aR antagonists in vitro blockade, IL-10 intracellular staining. The format is cell-based, mouse. Conditions: 10 μmol/L of each antagonist, 6 days; FIG. 6J. Here is the method:
C3aR and C5aR Antagonists In Vitro Blockade: Mouse CD8+ T cells from lymph nodes were enriched using a negative selection kit (Stemcell Technologies; Cat #19853) and activated by plate-bound anti-CD3 (2 μg/mL) and anti-CD28 (1 μg/mL) antibodies for 72 hours. The activated CD8+ T cells were then cultured in complete medium alone (control), 10 μmol/L SB290157 (C3aR antagonist, C3aRA), 10 μmol/L PMX205 (C5aR antagonist, C5aRA), or a combination of 10 μmol/L SB290157 and 10 μmol/L PMX205 for 6 days. The IL10 expression was determined by intracellular staining.

The conditions of data set [2]: cancer patients; cited from earlier work.
The subject of data set [3] is TILs from human lung tumors. In words: In vitro expansion of human TILs cultured with IL-2 and/or IL-10. The data set is classed as cell-based. Conditions: FIG. 5A. Here is the method: (§1) The plates were placed in a humidified 37° C. incubator with 5% CO2.
as §1

The subject of data set [4] is Human TILs from lung cancer patients. The data set can be described thus: T cell exhaustion markers on CD8+ TILs after IL-10 culture, flow cytometry. The data set is classed as cell-based. Conditions: IL-2 plus IL-10 versus IL-2, 21 days culture; FIG. 10. Here is the method:
T cells were activated by anti-CD3/CD28 antibodies for 24 hrs. The surface expression of PD-1, LAG-3 and TIM-3 was analyzed by flow cytometry. FACS profiles are representative of three patients.
In general terms: In flow cytometry, cells or beads pass a laser one at a time.

Data set [5] concerns CD8+ TILs from human lung tumors. The data set can be described thus: mRNA expression profiling (microarray) of expanded CD8+ TILs. The data set is classed as cell-based. The following applies: IL-10/IL-2-cultured versus IL-2-cultured CD8+ TILs. Here is the method:
Microarray Data Analysis: TILs from human lung tumors were in vitro—expanded for 20 days with 6,000 U/mL rIL2 and/or 100 U/mL rIL10. The expanded TILs were activated by incubation in 3 μg/mL anti-CD3/CD28 antibodies for 6 hours. The CD8+ TILs were enriched by negative selection using a kit (Stemcell Technologies). RNA was extracted using TRIzol reagent (Life Technologies) according to the instructions. Microarray analyses were performed using human U133A 2.0 arrays by the Duke University microarray facility. Raw intensities from the CEL files were analyzed using PartekGenomics Suite (Partek Incorporated) with standard background correction to generate an RMA (robust multiarray average intensity) on a log 2 scale for each probe set. Probe sets were filtered for “present” detection in two or more arrays, and the interquartile intensity range was >0.5. The filtered RMA intensities were then analyzed for differential expression using the advanced ANOVA, and differentially expressed genes were generated with/without FDR-adjusted P values using the Benjamini-Hochberg method.

Another data set deals with human CD4+ T cells. The data set can be described thus: Impact of IL-10 on effector cytokine production in human CD4+ T cells. The format is cell-based. The following applies: 100 U/ml rIL-2 plus 500 U/ml rIL-10 versus rIL-2, 48 hrs; FIG. 9D. Here is the method: (§2) B16F10 melanoma cells (2×10^5/mouse) were subcutaneously inoculated into WT and C3−/− mice. The draining lymph nodes and tumors were dissected and treated with collagenase and DNase to obtain single cell suspensions. Leukocytes were pre-gated on CD45 positive cells. FIG. 9A show the CD11b and GR1expression in leukocytes from dLNs as analyzed by flow cytometry. […] WT and C3−/− mice were subcutaneously inoculated with B16F10 cells (2×10^5/mouse). IFNγ- and TNFα-producing CD4+ TILs were analyzed by flow cytometry (n=4 mice per group) at day 12 after tumor inoculation. […] CD4+ T cells were enriched from PBMCs of healthy donors and activated by anti-CD3/CD28 antibodies in vitro for 48 hrs. The activated CD4+ T cells were then cultured with 100 U/ml rIL-2 or 100 U/ml rIL-2 plus 500 U/ml rIL-10 for 48 hrs. The cells were activated using a Cell Activation Cocktail (Biolegend) for 6 hours before intracellular IFNγ and TNFα staining. The expression of IFNγ and TNFα was analyzed by flow cytometry (n=3). […] Mouse CD4+ T cells were enriched from the spleens of naïve mice using a negative selection kit and activated by anti-CD3/CD28 antibodies for 48 hours in vitro. The activated CD4+ T cells were then cultured with 100 U/ml rIL-2 or 100 U/ml rIL-2 plus 500 U/ml rIL-10 for 48 hrs. […] The expression of IFNγ and TNFα was analyzed by flow cytometry (n=3). […]

The test system of the next data set is mouse CD4+ T cells. The data set can be described thus: Impact of IL-10 on effector cytokine production in mouse CD4+ T cells. The format is cell-based. Conditions: 100 U/ml rIL-2 plus 500 U/ml rIL-10 versus rIL-2, 48 hrs; FIG. 9E. Here is the method: as §2
Data set [6] relates to activated CD8+ T cells. The data set can be described thus: PD-1 expression on CD8+ T cells activated with anti-CD3/CD28 in the presence of IL-10. The format is cell-based, mouse. Conditions: 500 U/mL IL-10, 48 hours, 3 μg/mL anti-CD3/CD28; FIG. 7B. Here is the method: (§3) B16F10 melanoma cells (2×10^5/mouse) were subcutaneously inoculated into wild-type (WT) and C3−/− mice. […] T cells from lymph nodes of naïve mice were activated by incubation with 3 μg/mL anti-CD3/CD28 antibodies for 48 hours with or without 500 U/mL IL-10 and analyzed for PD-1 expression. FIGS. 7C-D show PD-L1 expression on tumor cells developed in WT and C3−/− mice. Bl6F10 melanoma cells (2×10^5/mouse) or E0771 breast cancer cells (1×10^6/mouse) were subcutaneously inoculated into WT and C3−/− mice. PD-L1 expression in CD45-B16 tumor cells (FIG. 7C) and CD45-E0771 cells (FIG. 7D) was measured by flow cytometry at day 12 and day 19, respectively. […] B16F10 cells were cultured with or without 500 U/mL IL-10 for 5 days. PD-L1 expression was analyzed by flow cytometry. […] B16F10 cells were transduced with control virus or single-guide RNA (sgRNA)—targeting PD-L1 virus and selected with puromycin to generate a stable PD-L1-silenced polyclonal cell line. […] Control or PD-L1-silenced B16F10 melanoma cells (4×10^5/mouse) were subcutaneously inoculated into C3−/− and C3−/− Tiger mice. GFP expression in CD3+CD8+ TILs was analyzed by flow cytometry. […] Tumor development was monitored every day starting from day 7 after implantation (n=7, 7, 9, and 8 mice, respectively). […] Significance was determined in FIG. 7H and FIG. 7I by Student t test.*, P≤0.05; **, P≤0.01.

A further data set concerns B16F10 cells. The data set can be described thus: PD-L1 expression in tumor cells after IL-10 stimulation. The following applies: 500 U/mL IL-10 for 5 days; FIG. 7E. The format is cell-based, mouse. Here is the method: as §3

Consider four molecules from patent publication US11219645B2, “Tumor infiltrating lymphocytes for treatment of cancer” (Duke University, priority 2015, dated 2022).

For the molecule “hydrocinnamate-(L-ornithine-proline-D-cyclohexylalanine-tryptophan-arginine) [PMX205]”, in the data set with activated CD8+ T cells [1], the “IL-10 expression in activated CD8+ T cells” value is listed as “slightly increased IL-10 expression”.
The same measure, in the same setting: as for `NC(N)=NCCC[C@H](NC(=O)COCC(c1ccccc1)c1ccccc1)C(=O)O` [SB 290157], the entry is “slightly increased IL-10 expression”.
As to “Pegylated IL-10: Pegylated IL-10 given to cancer patients”, the adverse effect profile result in [2] is “manageable adverse effect profile”.

B1: IL-10: a cytokine with multiple, pleotropic effects in immunoregulation and inflammation (protein, UniProt P22301 19-178, looked up)
Interleukin-10: SPGQGTQSENSCTHFPGNLPNMLRDLRDAFSRVKTFFQMKDQLDNLLLKESLLEDFKGYLGCQALSEMIQFYLEEVMPQAENQDPDIKAHVNSLGENLKTLRLRLRRCHRFLPCENKSKAVEQVKNAFNKLQEKGIYKAMSEFDIFINYIEAYMTMKIRN
Turning to B1, the “proliferative capacity of TILs” value in data set [3] (IL-10 added with IL-2: 6,000 U/mL rIL-2 plus 100 U/mL rIL-10, TILs from patients with lung cancer) was “robustly enhanced the proliferative capacity of TILs”. Moreover, in [3] (IL-10 alone, 100 U/mL rIL-10), the “proliferative capacity of TILs (entry into the cell cycle)” value is listed as “did not drive TILs into the cell cycle”. In data set [4], the “expression of T-cell exhaustion markers (PD-1, LAG3, TIM3)” value is on record as “not altered”. Further, the “expression of genes of signaling pathways (TCR signaling, Notch signaling, cell cycle, killing activity)” value in data set [5] (20 days, FIG. 5F-I) was “upregulated genes related to several signaling pathways”. The “expression of chemokine genes” value in [5] (FIG. 5J) is given as “variable depending on the specific chemokine”. Moreover, in the data set with human CD4+ T cells, the “effector status (IFNγ and TNFα) of human CD4+ T cells” value was “did not obviously alter the effector status”. Moreover, the “effector status (IFNγ and TNFα) of mouse CD4+ T cells” value with mouse CD4+ T cells was “did not obviously alter the effector status”. In addition, in the data set on activated CD8+ T cells [6], the “PD-1 expression on activated CD8+ T cells” value is “did not modulate PD-1 expression”. For the same molecule, the “PD-L1 expression on tumor cells” value with B16F10 cells is given as “not changed”.
